# Patent US20190359693A1
# Assays:
# [1] = biological target: hemagglutinin (HA) of influenza virus B/Lee/40 (Old) (influenza B virus) (UniProt P03460); test: cell-based or functional assay
# [2] = biological target: hemagglutinin (HA) of influenza virus B/Malaysia/2506/04 (Victoria) (influenza B virus); test: cell-based or functional assay
# [3] = biological target: hemagglutinin (HA) of influenza virus B/Harbin/7/94 (Yamagata) (influenza B virus); test: cell-based or functional assay
# [4] = biological target: hemagglutinin (HA) of influenza virus B/Brisbane/60/08 (Victoria) (influenza B virus); test: cell-based or functional assay
# [5] = biological target: hemagglutinin (HA) of influenza virus B/Florida/04/06 (Yamagata) (influenza B virus); test: cell-based or functional assay
# [6] = biological target: hemagglutinin (HA) of influenza A/waterfowl/Hong Kong/MPA892/06 (H4) (influenza A virus A/waterfowl/Hong Kong/MPA892/06 (H4)); test: cell-based or functional assay
# [7] = biological target: hemagglutinin (HA) of influenza A/chicken/Germany/n/49 (H10N7) (influenza A virus A/chicken/Germany/n/49 (H10N7)); test: cell-based or functional assay
# [8] = biological target: hemagglutinin (HA) of influenza A/Brisbane/10/07 (H3N2) (influenza A virus A/Brisbane/10/07 (H3N2)); test: cell-based or functional assay
# [9] = biological target: hemagglutinin (HA) of influenza A/New York/107/03 (PR8) (influenza A virus A/New York/107/03 (PR8)); test: cell-based or functional assay
# [10] = biological target: HA of H3N2 A/Wisconsin/67/2005 (influenza A virus); test: cell-based or functional assay
# [11] = biological target: HA of H7N3 A/NIBRG/60 (A/mallard/NL/12/00) (influenza A virus); test: cell-based or functional assay
# [12] = biological target: HA of H5N1 A/Vietnam/1194/04 (influenza A virus); test: cell-based or functional assay
# [13] = biological target: HA of H1N1 A/Puerto Rico/8/34-MA (influenza A virus); test: cell-based or functional assay
# [14] = biological target: HA of H3N2 A/Brisbane/10/2007 (influenza A virus); test: cell-based or functional assay
# [15] = biological target: HA of H5N1 A/PR8 H5N1 HK97 (influenza A virus); test: cell-based or functional assay
# [16] = biological target: HA of H1N1 A/New Caledonia/20/1999 (influenza A virus); test: cell-based or functional assay
# [17] = biological target: HA of B/Florida/04/2006 (Yamagata) (influenza B virus); test: AlphaLISA competition vs CR8033
# [18] = biological target: HA of B/Brisbane/60/2008 (Victoria) (influenza B virus); test: cell-based or functional assay
# [19] = biological target: HA of B/Harbin/7/94 (Yamagata) (influenza B virus); test: cell-based or functional assay
# [20] = biological target: HA of B/Florida/04/2006 (Yamagata) (influenza B virus); test: cell-based or functional assay
# [21] = biological target: HA of B/Malaysia/2506/04 (Victoria) (influenza B virus); test: cell-based or functional assay
# [22] = biological target: HA of H3N2 A/HK/1/68 (influenza A virus) (UniProt Q91MA7); test: cell-based or functional assay
# [23] = biological target: HA of H10N7 A/Chick/Germany/N/49 (influenza A virus); test: cell-based or functional assay
# [24] = biological target: HA of H4 A/WF/HK/MPA892/06 (influenza A virus); test: cell-based or functional assay
# [25] = biological target: HA of H1N1 A/Brisbane/59/07 (influenza A virus); test: cell-based or functional assay
# [26] = biological target: hemagglutinin (HA) of influenza A/Hong Kong/1/68 (H3N2) (influenza A virus A/Hong Kong/1/68 (H3N2)) (UniProt Q91MA7); test: cell-based or functional assay
# [27] = biological target: hemagglutinin (HA) of influenza A/California/07/09 (H1N1) (influenza A virus A/California/07/09 (H1N1)); test: cell-based or functional assay
# [28] = biological target: hemagglutinin (HA) of influenza A/New Caledonia/20/99 (H1N1) (influenza A virus A/New Caledonia/20/99 (H1N1)); test: cell-based or functional assay
# [29] = biological target: hemagglutinin (HA) of influenza A/Vietnam/1194/04 (H5N1) (influenza A virus A/Vietnam/1194/04 (H5N1)); test: cell-based or functional assay
# [30] = biological target: hemagglutinin (HA) of influenza virus H3N2 A/Brisbane/10/07 (influenza A virus); test: cell-based or functional assay
# [31] = biological target: hemagglutinin (HA) of influenza virus H5N1 A/Vietnam/1194/04 (influenza A virus); test: cell-based or functional assay
# [32] = biological target: hemagglutinin (HA) of influenza virus H7N9 A/Anhui/1/13 (influenza A virus); test: cell-based or functional assay
# [33] = biological target: hemagglutinin (HA) of influenza virus H7N3 A/NIBRG/60 (A/mallard/Netherlands/12/00) (influenza A virus); test: cell-based or functional assay
binder,measurement,setting,value
MD1224 (VHH) EVQLVESGGGLVQPGGSLKLSCAASGFTFSTSWMYWLRQAPGKGLEWVSVINTDGGTYYADSVKDRFTISRDNAKDTLYLQMSSLKSEDTAVYYCAKDWGGPEPTRGQGTQVTVSSAAAGGGGSGGGGSGGGGSGGGGSGGGGSGGGGSGGGGSEVQLVESGGGLVQPGGSLKLSCAASGFTFSTSWMYWLRQAPGKGLEWVSVINTDGGTYYADSVKDRFTISRDNAKDTLYLQMSSLKSEDTAVYYCAKDWGGPEPTRGQGTQVTVSS,neutralization titer,[1],33 nM
same,neutralization titer,[2],2.7 nM
same,neutralization titer,[3],4.5 nM
same,neutralization titer,[4],4.1 nM
same,neutralization titer,[5],0.8 nM
SD3097 (VHH) VHH: EVQLLESGGGLVQPGGSLRLSCAASGRTYAMGWFRQAPGKEREFVAAINALGTRTYYADSVKGRFTISRDNSKNTLYLQMNSLRAEDTAVYYCTAQGQWRAAPVAVAAEYEFWGQGTLVTVSS,VNA IC50,[6],6 nM
same,VNA IC50,[7],6 nM
same,VNA IC50,[8],17 nM
same,VNA IC50,[9],8 nM
SD1076 (VHH) VHH: EVQLVESGGGLVQAGGSLTLSCAGSGFAFSIATMGWYRQAPGKQRELVADITSGGSTNYADSVKGRFTISRDNAKNTVYLQMNSLKPEDTAVYYCNADSLATGWRQYSYWGKGTQVTVSS,VNA titer,[10],> 1000 nM
same,VNA titer,[11],> 1000 nM
same,VNA titer,[12],84.7 nM
same,VNA titer,[13],8.7 nM
same,VNA titer,[14],> 1000 nM
same,VNA titer,[15],66.8 nM
same,VNA titer,[16],22.1 nM
SD2020 (VHH) VHH: EVQLVESGGGLVQPGGSLRLSCAAAGGAFNRQLVAWFRQAPGKKREFVATVTTSGGSSYYADSVKGRFTISRDTAKNTVALQMNSLKAEDAAVYYCAARDSFTVAPYYPPESYAYWGQGTQVTVSS,VNA titer,[10],304 nM
same,VNA titer,[11],> 1000 nM
same,VNA titer,[12],> 1000 nM
same,VNA titer,[14],9.3 nM
SD1085 (VHH) VHH: EVQLVESGGGLVQAGDSLRLSCVISGLSLDTYAVGWFRQAPGKEREGITCISSGHGMTYYADSVKGRFTVSTDNAKNTVYLQMNGLQPEDTARYYCATESRYYCSDNWPAPQRYIYWGQGTQVTVSS,pIC50,[17],< 7
same,VNA titer,[18],40.7 nM
same,VNA titer,[19],631 nM
same,VNA titer,[20],187 nM
same,VNA titer,[21],66.3 nM
SD1073 (VHH) VHH: EVQLVESGGGLVQAGGSLRLSCAASGSAFSIAAMGWYRQAPGKQRELVATITTGGSTNYADSVKGRFTISRDNSKNTAYLQMNSLKPEDTAVYYCTAKSVVAETFGDLYNYWGQGTQVTVSS,VNA titer,[22],> 1000 nM
same,VNA titer,[23],317 nM
same,VNA titer,[11],135 nM
same,VNA titer,[12],224 nM
same,VNA titer,[24],> 1000 nM
same,VNA titer,[13],89.6 nM
same,VNA titer,[14],> 1000 nM
same,VNA titer,[15],179 nM
same,VNA titer,[16],98.9 nM
MD1222 (bispecific antibody) EVQLVESGGGLVQPGGSLRLSCAATGFTLENKAIGWFRQTPGSEREGVLCISKSGSWTYYTDSMRGRFTISRDNAENTVYLQMDSLKPEDTAVYYCATTTAGGGLCWDGTTFSRLASSWGQGTQVTVSSAAAGGGGSGGGGSGGGGSGGGGSGGGGSGGGGSGGGGSEVQLVESGGGLVQPGGSLKLSCAASGFTFSTSWMYWLRQAPGKGLEWVSVINTDGGTYYADSVKDRFTISRDNAKDTLYLQMSSLKSEDTAVYYCAKDWGGPEPTRGQGTQVTVSS,neutralization titer,[1],12.7 nM
same,neutralization titer,[2],3.6 nM
same,neutralization titer,[3],7.2 nM
same,neutralization titer,[4],3 nM
same,neutralization titer,[5],2.1 nM
SD1069 (VHH) VHH: EVQLVESGGGLVQAGDSLRLSCAASGPTFGMSAMGWFRQAPGKEREFVAAISGLGNPNYSDDVKGRFTISRENGRNTVYLQMNSLKPEDTAVYYCAQRKVYHVQGGDRPQAYDYWGQGTQVTVSS,VNA titer,[22],> 1000 nM
same,VNA titer,[23],> 1000 nM
same,VNA titer,[11],> 1000 nM
same,VNA titer,[12],74 nM
same,VNA titer,[24],> 1000 nM
same,VNA titer,[13],12.8 nM
same,VNA titer,[14],> 1000 nM
same,VNA titer,[15],242 nM
same,VNA titer,[16],20.8 nM
SD1070 (VHH) VHH: EVQLVESGGGLVQAGGSLRISCAASGRTFSIYSMGWFRQAPGKEREFVATIGWNSGRTFYADSMKERFTISADNARNTLYLQMNSLKFEDTAVYYCAAAKGPLRLSSQADYWGQGTQVTVSS,VNA titer,[10],> 1000 nM
same,VNA titer,[11],366 nM
same,VNA titer,[12],> 1000 nM
same,VNA titer,[20],> 1000 nM
same,VNA titer,[13],> 1000 nM
same,VNA titer,[14],15.3 nM
same,VNA titer,[16],> 1000 nM
SD1049 (VHH) VHH: EVQLVESGGGLVQAGGSLRLSCAASGRTLSLYSVGWFRQAPGKEREFVATIGWNSGRTFYVDSMKGRFTISRDNAKNTVYLQMNDLKVEDTAVYYCAAAKGPLRLSNQADYWGQGTQVTVSS,VNA titer,[10],> 1000 nM
same,VNA titer,[25],> 1000 nM
same,VNA titer,[11],115 nM
same,VNA titer,[12],> 1000 nM
same,VNA titer,[14],19.1 nM
same,VNA titer,[16],> 1000 nM
SD3030 (VHH) VHH: EVQLVESGGGLVQPGGSLRLSCAVSISIFDIYAMDWYRQAPGKQRDLVATSFRDGSTNYADSVKGRFTISRDNAKNTLYLQMNSLKPEDTAVYLCHVSLYRDPLGVAGGIGVYWGKGALVTVSS,VNA IC50,[26],126 nM
same,VNA IC50,[8],274 nM
same,VNA IC50,[27],3 nM
same,VNA IC50,[28],8 nM
same,VNA IC50,[29],20 nM
SD3099 (VHH) VHH: EVQLVESGGGLVQPGGSLRLSCAASGRTLSIYSMGWFRQAPGKEREFVATIGWNSGRTFYPDSVKGRFTISRDNSKNTLYLQMNSLRAEDTAVYYCAAAKGPLRLSSQADYWGQGTLVTVSS,VNA IC50,[6],2 nM
same,VNA IC50,[7],5 nM
same,VNA IC50,[8],3 nM
same,VNA IC50,[9],16 nM
MD2313 (bispecific antibody) EVQLVESGGGLVQAGDSLRISCAASGRTLSIYSMGWFRQAPGKEREFVATIGWNSGRTFYPDSLKGRFTISRDNARNTLYLQMNNLRPEDTAVYYCAAAKGPLRLSSQADYWGQGTQVTVSSGGGGSGGGGSEVQLVESGGGLVQAGDSLRISCAASGRTLSIYSMGWFRQAPGKEREFVATIGWNSGRTFYPDSLKGRFTISRDNARNTLYLQMNNLRPEDTAVYYCAAAKGPLRLSSQADYWGQGTQVTVSSGGGGSGGGGSEVQLVESGGGLVQPGGSLRLSCAATGFTLENKAIGWFRQTPGSEREGVLCISKSGSWTYYTDSMRGRFTISRDNAENTVYLQMDSLKPEDTAVYYCATTTAGGGLCWDGTTFSRLASSWGQGTQVTVSS,average neutralization titer,[30],7.7 nM
same,average neutralization titer,[31],> 1000 nM
same,average neutralization titer,[32],21.7 nM
same,average neutralization titer,[33],6.5 nM
